Assay results taken from the nanobody polyreactivity screen of Harvey et al. (2022).

Test: yeast display, Sf9 membrane polyspecificity reagent, FACS + sequencing; frameworks hold sequencing errors
Procedure, shortened: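 Using colony PCR, genes from sorted yeast display clones were amplified, then sequenced on MiSeq at 2 × 250 and filtered by CDR length. The clones had been stained with 10% biotinylated, detergent-solubilized Sf9 membrane reagent for 1 hour at 4 °C and sorted by FACS into low and high (top ~1%) gates on anti-HA and streptavidin fluorescence. Polyreactivity labels come from the gate of origin.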

Sequence	polyreactivity (PSR sort gate)
QVQLVESGGGLVQAGGSLRLSCAASGFTFYANAMGWYRQAPGKERELVAAISWSGGRTYYADSVKGRFTISRDNAKNTVYLQMNSLKPEDTAVYYCAAKRWTTKNGFYEYPYYYWGQGTQVTVSS	high polyreactivity
QVQLVESGGGLVQAGGSLRLSCAASGFTFYAYAMGWYRQAPGKERELVAVISQSGTRTYYADSVKGRFTISRDNAKNTVYLQMNSLKPEDTAVYYCAADTYSPDREYGYWGQGTQVTVSS	high polyreactivity
QVQLVESGGGLVQAGGSLRLSCAASGFTFYDYAMGWYRQAPGKERELVAAISDSGGITYYADSVTGRFTISRDNAKNTVYLQMNSLKPEDTAVYYCAADFATPGPEYDYWGQGTQVTVSW	low polyreactivity
QVQLVESGGGLVQAGGSLRLSCAASGFTFYFYALGWYRQAPGKERELVATITIGGRTNYADSVKGRFTISRDNAKNTVYLQMNSLKPEDTAVYYCAAAYLWISRYSGYDYWGQGTQVTVSS	high polyreactivity
QVQLVESGGGLVQAGGSLRLSCAASGFTFYGNAMGWYRQAPGKERDLVAAITGRAGRTYYADSVKGRFTISRDNSKNTVYLQMNSLKPEDTAVYYCAVQVAQSRTFSTYGYWGQGTQVTVSS	high polyreactivity
QVQLVESGGGLVQAGGSLRLSCAASGFTFYGYAMGWYRQAPGKERELVAAISSSGGRTYYADSVKGRFTISRDNAKNTVYLQMNSLKPEDTAVYYCAADYTSRDYYYWGQGTHVTVSS	high polyreactivity
QVQLVESGGGLVQAGGSLRLSCAASGFTFYIYAMGWYGLAAGKERELVAAINFRGGSTYYADSVKGRFTISRDNAKNTVYLQMNSLKPEDTAVKYCAARSRDKYDYWGQGTQVTVSS	high polyreactivity
QVQLVESGGGLVQAGGSLRLSCAASGFTFYKNTMGWYRPEPGKERELVAAISSSGSSTYYADSVKGRFRISRDNAKNTVYLLMNSLKPEDTAVYYCAAGRFAYHDDYWGQGTQVTVSS	high polyreactivity
QVQLVESGGGLVQAGGSLRLSCAASGFTFYKNTMGWYRQAPGNERELVAAISYRGGTYYADSVKGRFTISRDNAKTTVYLQMNSLKPEDTAVYYCNARYRGKYSSYGFWGHGTQVTVSS	high polyreactivity
QVQLVESGGGLVQAGGSLRLSCAASGFTFYKYAMGWYRQAPGKERELVAAISRRGTSTYYADSVKGRFTISRDNAKNTVYLQMNSLKPEDTAVYYCNRDVSLSAFDYWGQGTQVTVSS	high polyreactivity
QVQLVESGGGLVQAGGSLRLSCAASGFTFYKYAMGWYRQAPGKERELVAGIRRGGTNYADSVKGRFTISRDNAKNTVYLQMNSLKPEDTAVYYCAADVRPYYSAYRGRYYYWGQGTQVTVSS	high polyreactivity
QVQLVESGGGLVQAGGSLRLSCAASGFTFYKYVMGWYRQAPGKERELVAAISYSSGSTYYADSVKGRFTISRDNAKNTVYLQMNSLKPEDTAVYYCAARTYYAPQNMGYWGQGTQVTVSS	high polyreactivity
QVQLVESGGGLVQAGGSLRLSCAASGFTFYLNAKGWYRQAPGKERELVAAITGSGGSTYYADSVKGRFTISRDNAKNTVYLQMNSLKPEDTAVYYCAADLYFYVISSGYGFYYWGQGTQVTVSS	low polyreactivity
QVQLVESGGGLVQAGGSLRLSCAASGFTFYLNAMGLYRQAPGKERELVAGISWRGGRTYYADSVKGRFTISRDNAKNSVYLQMNSLKAEDTAVYYCAAVTYSFQKTDYYWGQGTQVTVSS	high polyreactivity
QVQLVESGGGLVQAGGSLRLSCAASGFTFYLYAMGWYRQAPGKERELVASISSGGRTYYADSVKGRFTISRDNAKNTVYLQMNSLKPEDTAVYYCAVSPYSRRKYEYYYWGQGTQVTVSS	high polyreactivity
QVQLVESGGGLVQAGGSLRLSCAASGFTFYLYGMGWYRPAPGKERELVAGIDSDGRTNYADSVKGRFTISRDNAMNTVYLQMNSLKPEDTAVYYCAVEWAGGYDYYYWGQGSQVTVSS	high polyreactivity

Sequence	polyreactivity (PSR sort gate)
QVQLVESGGGLVQAGGSLRLSCAASGFTFYLYTMGWYRQAPGKERELVAAINYSGGRTYYADSVKGRFTISRDNAKNTVYLQMNSLKPEDTAVYYCYPRVKNLQAYDYWGQGTQVTVSS	high polyreactivity
QVQLVESGGGLVQAGGSLRLSCAASGFTFYPYAMGWYRQAPGKERELVAASTASGGSTYYADSVKGRFTISRDNAKNTVYLQMNSLKPEDTAVFYCAKGWVSYWRYKNEYWGQGTQVTVSS	high polyreactivity
QVQLVESGGGLVQAGGSLRLSCAASGFTFYPYTMGWYRQAPGKERELVAVITYDSTYYADSVKGRFTISRDNAKNTVYLQMNSLKPEDTAVYYCNATGYSVSRSAYWYGWYDYWGQGTQVTVSS	low polyreactivity
QVQLVESGGGLVQAGGSLRLSCAASGFTFYQYAMGWSRPAPGKERELVAGISRGGRTYYADSVKGRFTISRDNANNTVYLQMNSLKPEDTAVYYCAARYFYYKNVYAYRTYYYWGQGTQVTVSS	high polyreactivity
QVQLVESGGGLVQAGGSLRLSCAASGFTFYQYAMGWYRQAPGKERELVASISWSGGRTYYADSVKGRFTISRDNAKKTVYFQKNSLKPEDTAVYYCAARAYRIAGYDYWGQGTQVTVSS	high polyreactivity
QVQLVESGGGLVQAGGSLRLSCAASGFTFYRNAMGWYRQAPGKERELVAAISRGGRTYYADSVKGRFTISRDNAKNTVYLQMNSLKPEDTAVYYCAVGYSGYGSSMDYWGQGTQVTVSS	high polyreactivity
QVQLVESGGGLVQAGGSLRLSCAASGFTFYRNAMGWYRQAPGKEREVVAAISISGGSTYYADSVKGRFTISRDNAKNTVYLQMNSLKPEDTAVYYCAAYYYRDRYSRVKVTYWGLGTQVTVSS	high polyreactivity
QVQLVESGGGLVQAGGSLRLSCAASGFTFYRNTMGWYRQAPGKERELVATITFSGTRTYYADSVKGRFTISRDNAKNTVYLQMNSLKPEDTAVYYCNRVRYRQSAFDFWGQGTQVTVSS	high polyreactivity
QVQLVESGGGLVQAGGSLRLSCAASGFTFYRYAMGWYRKAPGKERELVAAISSSGGTTYYADSVKVRFTISRDHAKNTVYLQMNRLKPEDTAVYYCAARGWPNWGWGYDYWGQGTQVTVSS	high polyreactivity
QVQLVESGGGLVQAGGSLRLSCAASGFTFYRYAMGWYRQAPGKERELVAAFSGSGGSTYYADSVKGRFTISRDNAKNTVYLQMNSLKPEDTAVYYCNTVWFYGAKYDYWGQGTQVTVSS	high polyreactivity
QVQLVESGGGLVQAGGSLRLSCAASGFTFYRYAMGWYRQAPGKERELVAAISKRGGNTYYADSVKGRFTISRDNAKNTVYLQMNSLKPEDTAVYYCAADFATWDAKPYDYWGQGTQVTVSS	high polyreactivity
QVQLVESGGGLVQAGGSLRLSCAASGFTFYRYAMGWYRQAPGKERELVAAITRSGSRSYYADSVKGRFTISRDNAKNTVYLQMNSLKPEDTAVYSCNGPRPASTDRRRYNYCGQGTQVTVSS	high polyreactivity
QVQLVESGGGLVQAGGSLRLSCAASGFTFYRYAMGWYRQAPGKERELVATISASGGSTYYADSVKGRFTISRDNAKNTVYLQMNSLKPEDTAVYYCAAEHYLWGYVVVREDYWGQGTQVTVSS	high polyreactivity
QVQLVESGGGLVQAGGSLRLSCAASGFTFYRYAMGWYRQAPGNERELVAAISSGGRTTYADSVKGRFTISRDNANNTVYLQMNSLKPQDTAVYYCVFVYVYDYYYWGQGTQVTVSS	high polyreactivity
QVQLVESGGGLVQAGGSLRLSCAASGFTFYRYAMGWYRQAPWKERELVAVISGNAGSTYYADSVKGRFTISRDNAKNTVYLQMNSLKPEDTAVYYCNARKARAYGTFEYWGQGTQVTVSS	high polyreactivity
QVQLVESGGGLVQAGGSLRLSCAASGFTFYRYTMGCYRQAPGKERELVAAISSGDSTYYADSVKGRFTISRDNAKNTVYLQMNSLKPEDTAVYYCAARQYSRGAIVYYWGQGTQVTVSS	high polyreactivity
